± gives the uncertainty stated by the source.
B1: library; numbered along this chain (parent)
chain: MEVVDPQQLGMFTEGELMSVGMDTFIHRIDSTEVIYQPRRKRAKLIGKYLMGDLLGEGSYGKVKEVLDSETLCRRAVKILKKKKLRRIPNGEANVKKEIQLLRRLRHKNVIQLVDVLYNEEKQKMYMVMEYCVCGMQEMLDSVPEKRFPVCQAHGYFCQLIDGLEYLHSQGIVHKDIKPGNLLLTTGGTLKISDLGVAEALHPFAADDTCRTSQGSPAFQPPEIANGLDTFSGFKVDIWSAGVTLYNITTGLYPFEGDNIYKLFENIGKGSYAIPGDCGPPLSDLLKGMLEYEPAKRFSIRQIRQHSWFRKKHPPAEAPVPIPPSPDTKDRWRSMTVVPYLEDLHGADEDEDLFDIEDDIIYTQDFTVPGQVPEEEASHNGQRRGLPKAVCMNGTEAAQLSTKSRAEGRAPNPARKACSASSKIRRLSACKQQ

Variants of: B1
Assay: STK11 functional score (HeLa growth suppression), rescaled enrichment; synonymous median = 1, nonsense median = 0 (normalised score)
Conditions: with HeLa; variant type: missense
How it was run: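 Codon-randomised (POPCode) libraries of codon-optimised STK11 were integrated by Bxb1 at an AAVS1 landing pad in HeLa, in three regions each transfected three times. Integrants (BFP-negative, mCherry-positive) were FACS-sorted 4–5 days after electroporation and grown about two weeks; tiled gDNA amplicons were sequenced on NextSeq (~2 million reads per tile). The functional score is the wild-type-corrected post/pre-selection log ratio, rescaled to synonymous and nonsense medians, merged over codons and replicate transfections, with bootstrapped error.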

Variant | STK11 functional score
D208T | 1.04 ± 0.2
D208Y | 0.93 ± 0.38
L167H | -0.00514 ± 0.083
Y292F | 0.991 ± 0.22
Y292D | 1.09 ± 0.67
I29T | 0.53 ± 0.082
I29M | 0.901 ± 0.47
H313P | 0.624 ± 0.47
R147G | 1.07 ± 0.086
D277V | 1.23 ± 0.17
R333F | 0.85 ± 0.49
T32S | 1.45 ± 0.21
S193A | 0.853 ± 0.12
E165Y | 1.24 ± 0.15
P144E | 1.63 ± 0.2
S216G | 0.926 ± 0.23
V390S | 1.5 ± 0.27
V390Y | 1.41 ± 0.3
D358R | 1.34 ± 0.27
D358I | 1.15 ± 0.46
D358H | 0.325 ± 0.53
Y272N | 1.71 ± 0.45
G381L | 1.24 ± 0.15
S59R | 1.5 ± 0.31

Variant | STK11 functional score
G270F | 1.14 ± 0.39
G270C | 1.41 ± 0.31
T189L | 1.24 ± 0.39
L55M | 0.938 ± 0.19
H202I | 1.31 ± 0.21
L117G | 0.823 ± 0.22
I300P | 1.42 ± 0.13
N94W | 0.162 ± 0.14
N94A | 0.173 ± 0.19
D194V | -0.261 ± 0.096
D284S | 1.27 ± 0.11
L54R | 0.812 ± 0.087
L54S | 1.2 ± 0.21
P38S | 1.06 ± 0.12
P38R | 0.891 ± 0.086
G215V | 0.788 ± 0.16
A241D | 0.383 ± 0.2
G58A | 0.935 ± 0.29
G58L | -0.188 ± 0.095
D207G | 0.954 ± 0.25
D207A | 1.27 ± 0.29
D207N | 0.668 ± 0.74
G163H | -0.383 ± 0.17
E349W | 1.14 ± 0.5

Variant | STK11 functional score
E349G | 0.983 ± 0.3
E349N | 1.48 ± 0.19
Y118V | 0.988 ± 0.11
Y118P | 1.3 ± 0.14
Y118L | 0.633 ± 0.1
D176S | -0.0857 ± 0.087
R42K | 1.26 ± 0.84
Q399P | 1.35 ± 0.52
G135H | 1.63 ± 0.21
G135A | 1.56 ± 0.28
F219I | 1.31 ± 0.32
V143P | -0.133 ± 0.082
V143T | 1.59 ± 0.19
P221I | 0.337 ± 0.12
P221C | 0.759 ± 0.11
P221L | 0.159 ± 0.17
L140D | 0.0191 ± 0.11
L140V | 0.909 ± 0.079
A200S | 0.652 ± 0.15
I248T | 1.15 ± 0.2
L201F | 0.797 ± 0.33
L201D | 0.769 ± 0.11
L201V | 0.808 ± 0.096
V320R | 1.49 ± 0.17

Variant | STK11 functional score
Q123Y | 1.01 ± 0.22
L160Q | 0.000621 ± 0.18
M51Q | 1.66 ± 0.16
R28I | 1.41 ± 0.49
R28C | 0.873 ± 0.22
Y36R | 1.3 ± 0.59
F231L | 0.842 ± 0.35
F231M | -0.0118 ± 0.18
G276D | 1.33 ± 0.75
S307T | 1.22 ± 0.52
S307A | 1.49 ± 0.15
Q159E | 1.25 ± 0.55
F264I | 0.658 ± 0.51
V63E | 0.189 ± 0.41
T212R | 1.48 ± 0.21
S419L | 1.17 ± 0.14
S419Y | 1.61 ± 0.027
S419E | 1.24 ± 0.45
C151I | 0.722 ± 0.19
F148A | 0.105 ± 0.081
F148V | 0.674 ± 0.14
A406S | 1.41 ± 0.33
A406V | 1.52 ± 0.28
G47A | 1.4 ± 0.58

Variant | STK11 functional score
Q220H | 0.87 ± 0.2
T367R | 1.32 ± 0.27
T367P | 1.41 ± 0.41
E14K | 0.385 ± 0.59
M18Y | 1.43 ± 0.41
P6T | 0.874 ± 0.12
Q214I | 1.05 ± 0.27
Q214P | 0.598 ± 0.18
V4H | 1.65 ± 0.25
E357Q | 1.13 ± 0.47
E357D | 0.56 ± 0.73
R211F | 1.61 ± 0.33
R211H | 1.32 ± 0.11
Q364V | 1.11 ± 0.14
F366P | 1.62 ± 0.14
T209N | 1.51 ± 0.17
K64A | 1.59 ± 0.31
T13K | 0.0631 ± 0.2
D352M | 1.2 ± 0.33
D352C | 1.34 ± 0.34
E121T | 1.13 ± 0.36
E256G | 1.17 ± 0.28
E256R | 1.48 ± 0.19
L9W | 1.49 ± 0.16

Variant | STK11 functional score
L9R | 1.12 ± 0.2
R39I | 1.12 ± 0.38
V173G | 1.15 ± 0.33
D141V | 1.18 ± 0.36
D141S | 1.21 ± 0.081
D350V | 1.19 ± 0.34
P280R | 1.14 ± 0.17
P280T | 1.53 ± 0.25
S213L | 1.17 ± 0.17
S213G | 1.37 ± 0.14
W239H | 0.199 ± 0.11
I99R | 0.708 ± 0.16
I99M | 1.07 ± 0.36
I99C | 1.57 ± 0.18
D343T | 1.53 ± 0.14
F354S | 1.34 ± 0.26
F354R | 1.53 ± 0.16
F354L | 1.12 ± 0.22
F354Y | 1.31 ± 0.15
A206R | 1.64 ± 0.13
A206W | 0.035 ± 0.16
R103Q | 1.27 ± 0.41
R106H | 1.62 ± 0.16
Y246H | -0.136 ± 0.1

Variant | STK11 functional score
D53V | 0.606 ± 0.096
I88M | 0.899 ± 0.094
I88S | 1.16 ± 0.26
R383G | 1.11 ± 0.35
Q137L | 1.27 ± 0.084
E120H | 1.66 ± 0.17
D115Y | 0.294 ± 0.094
L344C | 1.12 ± 0.45
L344I | 1.13 ± 0.43
V150G | 0.594 ± 0.14
K329I | 1.25 ± 0.46
L353H | 1.4 ± 0.68
V95P | 1.65 ± 0.3
T336Y | 1.17 ± 0.15
R74C | 1.11 ± 0.25
P387I | 1.54 ± 0.17
P387V | 1.13 ± 0.56
K423G | 1.56 ± 0.2
A389I | 1.59 ± 0.24
I161E | -0.456 ± 0.065
I161F | -0.101 ± 0.25
S404G | 1.57 ± 0.28
G15S | 1.28 ± 0.12

Source: the supplement of paper PMC12338614
